# Reference: the supplement of paper PMC7877785
# ± gives the uncertainty stated by the source.
# Assay: self-splicing fitness, log relative to wild type (ln ratio); higher = more splicing; Tetrahymena group I intron in knt gene, E. coli kanamycin selection, DiMSum; sequences stand for … in CUCUCU…GGAGGGAAAAGUUAUCAGGCAUGCACCUGGUAGCUAGUCUUUAAACCAAUAGAUUGCAUCGGUUUAAAAGGCAAGACCGUCAAAUUGCGGGAAAGGGGUCAACAGCCGUUCAGUACCAAGUCUCAGGGGAAACUUUGAGAUGGCCUUGCAAAGGGUAUGGUAAUAAGCUGACGGACAUGGUCCUAACCACGCAGCCAAGUCCUAAGUCAACAGAUCUUCUGUUGAUAUGGAUGCAGUUCACAGACUAAAUGUCGGUCGGGGAAGAUGUAUUCUUCUCAUAAGAUAUAGUCGGACCUCUCCUUAAUGGGAGCUAGCGGAUGAAGUGAUGCAACACUGGAGCCGCUGGGAACUAAUUUGUAUGCGAAAGUAUAUUGAUUAGUUUUGGAGUACUCGUGGUCG
# In short: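 Colonies from six replicate transformations of E. coli BL21(DE3) were pooled and amplicon-sequenced on an Illumina HiSeq 2500. The library placed an intron with all eight P1ex-region nucleotides randomised inside the knt kanamycin-resistance gene on pET-22b(+), and cells grew overnight at 37°C or 30°C on LB agar with or without 25 μg/mL kanamycin (plus 100 μg/mL carbenicillin, 50 μM IPTG, 0.2% rhamnose). Fitness is the DiMSum error-weighted combination of wild-type-normalised replicate fold changes, kanamycin versus none.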
Sequence,self-splicing fitness (ln) (30 °C),self-splicing fitness (ln) (37 °C)
ACCGAGCAAUAUUACGGCGC,-1.24 ± 0.14,-0.396 ± 0.16
UUGUAGCAAUAUUACGUGUU,-2.7 ± 0.25,-2.5 ± 0.24
UAAUAGCAAUAUUACGGCGC,-3.51 ± 0.35,-2.42 ± 0.38
GGUAAGCAAUAUUACGUCUA,-0.569 ± 0.1,-0.562 ± 0.1
UCAGAGCAAUAUUACGGCAA,-2.43 ± 0.33,
CACAAGCAAUAUUACGGGAA,-3.21 ± 0.16,-2.79 ± 0.17
GUACAGCAAUAUUACGCUAU,-3.82 ± 0.29,-1.77 ± 0.2
CAAAAGCAAUAUUACGAAGA,-2.23 ± 0.28,-1.43 ± 0.17
ACAGAGCAAUAUUACGUGGC,-3.8 ± 0.25,-2.31 ± 0.32
GACUAGCAAUAUUACGACAC,-0.0525 ± 0.075,-0.0737 ± 0.093
AUCGAGCAAUAUUACGAAAA,-3.6 ± 0.39,-2.1 ± 0.32
GUUCAGCAAUAUUACGUUGA,-3.12 ± 0.28,-1.57 ± 0.17
CGCUAGCAAUAUUACGUGUG,-4.15 ± 0.27,-3.12 ± 0.19
GCAUAGCAAUAUUACGCGCC,-3.02 ± 0.49,-1.93 ± 0.36
ACUUAGCAAUAUUACGGCAA,-0.92 ± 0.16,-1.31 ± 0.23
CUCAAGCAAUAUUACGUCUC,-4.33 ± 0.39,-0.263 ± 0.2
CGAUAGCAAUAUUACGCGGU,-3.13 ± 0.27,-1.94 ± 0.19
AGACAGCAAUAUUACGUCGU,-2.21 ± 0.091,-1.85 ± 0.12
CGGCAGCAAUAUUACGGAGU,-3.46 ± 0.27,-2.33 ± 0.2
GGGUAGCAAUAUUACGACAC,-0.676 ± 0.33,-0.155 ± 0.35
AUGCAGCAAUAUUACGGUGC,-3.79 ± 0.11,-3.02 ± 0.13
CAUAAGCAAUAUUACGACAG,-0.32 ± 0.072,0.334 ± 0.09
CUGGAGCAAUAUUACGCGAU,-2.76 ± 0.16,-1.9 ± 0.15
GUAGAGCAAUAUUACGGCGG,-1.86 ± 0.12,-1.99 ± 0.18
GCUAAGCAAUAUUACGGCGG,-3.78 ± 0.12,-2.7 ± 0.15
UGUAAGCAAUAUUACGUAGA,-0.696 ± 0.12,-0.209 ± 0.16

Sequence,self-splicing fitness (ln) (30 °C),self-splicing fitness (ln) (37 °C)
AGUGAGCAAUAUUACGUGCU,-1.86 ± 0.28,
UUCGAGCAAUAUUACGGGCU,,-3.81 ± 0.42
UCCUAGCAAUAUUACGAUUC,,-2.2 ± 0.29
UAAAAGCAAUAUUACGUUAU,-3.59 ± 0.16,-2.41 ± 0.13
UGAUAGCAAUAUUACGUAGU,-4.18 ± 0.31,-2.38 ± 0.28
GCCCAGCAAUAUUACGAAGU,-0.333 ± 0.054,0.22 ± 0.069
ACAUAGCAAUAUUACGGGGC,-2.87 ± 0.12,-1.81 ± 0.13
GACAAGCAAUAUUACGGCAA,-0.787 ± 0.075,-0.384 ± 0.074
GUCUAGCAAUAUUACGCUAC,-2.41 ± 0.47,-2.57 ± 0.33
GAUGAGCAAUAUUACGGCGA,-2.19 ± 0.17,-1.38 ± 0.13
UAAGAGCAAUAUUACGGUCU,-3.26 ± 0.4,-2.04 ± 0.24
GACGAGCAAUAUUACGAAAA,,-3.07 ± 0.37
AGGCAGCAAUAUUACGGCAG,-1.29 ± 0.1,-0.578 ± 0.12
AGGCAGCAAUAUUACGUCUU,-4.07 ± 0.25,-2.58 ± 0.19
CUGAAGCAAUAUUACGCAAG,-0.812 ± 0.12,0.142 ± 0.18
GAGCAGCAAUAUUACGCCGC,-1.63 ± 0.22,-2.43 ± 0.38
GUGCAGCAAUAUUACGUUCC,-2.72 ± 0.18,-1.05 ± 0.25
GAGUAGCAAUAUUACGUGUC,-1.73 ± 0.16,-1.53 ± 0.26
CCGAAGCAAUAUUACGGUGU,-3.91 ± 0.21,-2.09 ± 0.14
CUCUAGCAAUAUUACGGUAA,-2.38 ± 0.24,-2.14 ± 0.21
GUUAAGCAAUAUUACGACUA,-0.731 ± 0.13,-0.438 ± 0.11
CGCGAGCAAUAUUACGGGAA,-3.74 ± 0.27,-2.4 ± 0.29
GGUAAGCAAUAUUACGGUCC,-1.57 ± 0.34,
AUGAAGCAAUAUUACGGUCA,0.145 ± 0.07,0.605 ± 0.1
AUACAGCAAUAUUACGGGCA,-0.996 ± 0.099,-0.765 ± 0.1
UAGCAGCAAUAUUACGGGGG,-3.44 ± 0.29,-2.98 ± 0.29

Sequence,self-splicing fitness (ln) (30 °C),self-splicing fitness (ln) (37 °C)
AUAGAGCAAUAUUACGUCGA,-2.82 ± 0.19,-1.04 ± 0.17
UAUCAGCAAUAUUACGUCGU,-3.02 ± 0.12,-1.6 ± 0.1
GACUAGCAAUAUUACGCAUU,-2.42 ± 0.14,-1.63 ± 0.13
CACUAGCAAUAUUACGUAUA,-3.17 ± 0.36,-1.5 ± 0.23
GCUGAGCAAUAUUACGGCCA,-2.02 ± 0.28,-1.9 ± 0.38
GACAAGCAAUAUUACGGCCU,-0.429 ± 0.082,-0.314 ± 0.1
ACGAAGCAAUAUUACGGAGG,-2.97 ± 0.16,-1.69 ± 0.14
GCCAAGCAAUAUUACGGCAU,-3.55 ± 0.21,-2.55 ± 0.19
CAUAAGCAAUAUUACGGUGC,-3.51 ± 0.18,-3.18 ± 0.24
UCGAAGCAAUAUUACGUCAC,-2.21 ± 0.12,-2.69 ± 0.27
AACUAGCAAUAUUACGGUCG,-0.193 ± 0.062,0.193 ± 0.085
CAGUAGCAAUAUUACGAUAA,-3.55 ± 0.47,
AACUAGCAAUAUUACGUUGU,-3.51 ± 0.13,-2.29 ± 0.12
CUUCAGCAAUAUUACGGAAG,-4.18 ± 0.28,-2.4 ± 0.2
CUGGAGCAAUAUUACGGGGU,-3.12 ± 0.31,-1.53 ± 0.27
CCACAGCAAUAUUACGACUG,-2.92 ± 0.11,-0.694 ± 0.092
CAAUAGCAAUAUUACGGUCC,-3.21 ± 0.38,-2.34 ± 0.39
CACAAGCAAUAUUACGCACU,-2.4 ± 0.13,-1.33 ± 0.11
AACUAGCAAUAUUACGCAAG,-3.14 ± 0.14,-1.77 ± 0.15
ACCUAGCAAUAUUACGCUUC,-1.2 ± 0.1,-1.1 ± 0.11
GGACAGCAAUAUUACGCUUA,-0.319 ± 0.08,0.1 ± 0.1
GGGUAGCAAUAUUACGGUUG,-2.88 ± 0.14,-0.949 ± 0.17
UCUGAGCAAUAUUACGUGGC,-3.1 ± 0.25,-1.94 ± 0.23
GUAGAGCAAUAUUACGUCCG,-2.26 ± 0.27,-2.49 ± 0.49
UGCGAGCAAUAUUACGCAAA,-3.58 ± 0.28,-2.04 ± 0.17
